This passage reports OD450 nm and Ratio OD(Variant)/OD(WT) results from patent US20240400654A1.

This assay deals with HRgpA-6H (Porphyromonas gingivalis) (UniProt P28784). Nature of the assay: ELISA, coated HRgpA-6H. In general terms: ELISA stands for enzyme-linked immunosorbent assay.

Several values for one entry are separate records, joined by “and”; a condition that tells them apart may be missing. Equal values may be shown once.

Sequence of UniProt P28784 (P28784 228-860 limits assumed): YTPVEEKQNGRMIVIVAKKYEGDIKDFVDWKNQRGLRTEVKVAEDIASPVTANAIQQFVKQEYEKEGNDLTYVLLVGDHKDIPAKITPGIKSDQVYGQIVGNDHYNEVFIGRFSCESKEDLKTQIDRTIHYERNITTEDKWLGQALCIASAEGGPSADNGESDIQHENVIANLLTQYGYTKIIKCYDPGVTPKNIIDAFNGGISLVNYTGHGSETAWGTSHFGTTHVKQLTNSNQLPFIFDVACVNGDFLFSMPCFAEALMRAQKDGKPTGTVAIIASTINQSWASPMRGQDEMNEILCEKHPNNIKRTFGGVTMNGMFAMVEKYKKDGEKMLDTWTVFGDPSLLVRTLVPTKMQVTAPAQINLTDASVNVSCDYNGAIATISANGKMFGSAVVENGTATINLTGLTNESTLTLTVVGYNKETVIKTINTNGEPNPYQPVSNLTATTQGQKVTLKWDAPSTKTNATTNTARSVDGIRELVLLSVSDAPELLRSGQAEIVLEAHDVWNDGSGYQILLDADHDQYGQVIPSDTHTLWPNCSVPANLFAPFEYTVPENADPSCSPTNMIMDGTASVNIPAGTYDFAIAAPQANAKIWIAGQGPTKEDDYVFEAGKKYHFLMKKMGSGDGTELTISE

B1: KB001 mouse Fab VH I31F (Fab, V domains shown)
VH: EVQLKQSGPGLVAPSQSLSITCTVSGFSLSFYSVHWVRQPPGKGLEWLGMIWGGGSSDYNSALKSRLSISKDNSKSQVFLKMNSLQTDDTAMYYCARNGNFYAMDYWGQGTSVTVSS
VL: QIVLTQSPAIMSASLGERVTMTCTASSSVSSSFLHWYQQKPGSSPQLWIYSTSNLASGVPARFSGSGSGTSYSLTISSMEAEDAATYYCHQYHHSPYIYTFGGGTKLEIK
With B1, the OD450 nm is 0.45 and the Ratio OD(Variant)/OD(WT) amounted to 0.892.

B2: KB001 mouse Fab VH Y32W (Fab, V domains shown)
VH: EVQLKQSGPGLVAPSQSLSITCTVSGFSLSIWSVHWVRQPPGKGLEWLGMIWGGGSSDYNSALKSRLSISKDNSKSQVFLKMNSLQTDDTAMYYCARNGNFYAMDYWGQGTSVTVSS
VL: QIVLTQSPAIMSASLGERVTMTCTASSSVSSSFLHWYQQKPGSSPQLWIYSTSNLASGVPARFSGSGSGTSYSLTISSMEAEDAATYYCHQYHHSPYIYTFGGGTKLEIK
Consider B2, for which the OD450 nm was 0.731 and 0.718 and 0.747; the Ratio OD(Variant)/OD(WT) was 0.864 and 0.848 and 0.882.

B3: KB001 mouse Fab VH V34M (Fab, V domains shown)
VH: EVQLKQSGPGLVAPSQSLSITCTVSGFSLSIYSMHWVRQPPGKGLEWLGMIWGGGSSDYNSALKSRLSISKDNSKSQVFLKMNSLQTDDTAMYYCARNGNFYAMDYWGQGTSVTVSS
VL: QIVLTQSPAIMSASLGERVTMTCTASSSVSSSFLHWYQQKPGSSPQLWIYSTSNLASGVPARFSGSGSGTSYSLTISSMEAEDAATYYCHQYHHSPYIYTFGGGTKLEIK
In the case of B3, the OD450 nm is 0.793 and 0.791; the Ratio OD(Variant)/OD(WT) is 0.962 and 0.959.

B4: KB001 mouse Fab VH Y32F (Fab, V domains shown)
VH: EVQLKQSGPGLVAPSQSLSITCTVSGFSLSIFSVHWVRQPPGKGLEWLGMIWGGGSSDYNSALKSRLSISKDNSKSQVFLKMNSLQTDDTAMYYCARNGNFYAMDYWGQGTSVTVSS
VL: QIVLTQSPAIMSASLGERVTMTCTASSSVSSSFLHWYQQKPGSSPQLWIYSTSNLASGVPARFSGSGSGTSYSLTISSMEAEDAATYYCHQYHHSPYIYTFGGGTKLEIK
As for B4, the OD450 nm was 0.814 and 0.807; the Ratio OD(Variant)/OD(WT) is 0.962 and 0.953.

B5: KB001 mouse Fab VH Y32N (Fab, V domains shown)
VH: EVQLKQSGPGLVAPSQSLSITCTVSGFSLSINSVHWVRQPPGKGLEWLGMIWGGGSSDYNSALKSRLSISKDNSKSQVFLKMNSLQTDDTAMYYCARNGNFYAMDYWGQGTSVTVSS
VL: QIVLTQSPAIMSASLGERVTMTCTASSSVSSSFLHWYQQKPGSSPQLWIYSTSNLASGVPARFSGSGSGTSYSLTISSMEAEDAATYYCHQYHHSPYIYTFGGGTKLEIK
Regarding B5, the OD450 nm was 0.826 and 0.775; the Ratio OD(Variant)/OD(WT) is 0.976 and 0.916.

B6: KB001 mouse Fab VH I51V (Fab, V domains shown)
VH: EVQLKQSGPGLVAPSQSLSITCTVSGFSLSIYSVHWVRQPPGKGLEWLGMVWGGGSSDYNSALKSRLSISKDNSKSQVFLKMNSLQTDDTAMYYCARNGNFYAMDYWGQGTSVTVSS
VL: QIVLTQSPAIMSASLGERVTMTCTASSSVSSSFLHWYQQKPGSSPQLWIYSTSNLASGVPARFSGSGSGTSYSLTISSMEAEDAATYYCHQYHHSPYIYTFGGGTKLEIK
On to B6, for which the OD450 nm turned out to be 0.798 and the Ratio OD(Variant)/OD(WT) was found to be 0.903.

B7: KB001 mouse Fab VH I31Q (Fab, V domains shown)
VH: EVQLKQSGPGLVAPSQSLSITCTVSGFSLSQYSVHWVRQPPGKGLEWLGMIWGGGSSDYNSALKSRLSISKDNSKSQVFLKMNSLQTDDTAMYYCARNGNFYAMDYWGQGTSVTVSS
VL: QIVLTQSPAIMSASLGERVTMTCTASSSVSSSFLHWYQQKPGSSPQLWIYSTSNLASGVPARFSGSGSGTSYSLTISSMEAEDAATYYCHQYHHSPYIYTFGGGTKLEIK
For B7, the OD450 nm is 0.44 and 0.439; the Ratio OD(Variant)/OD(WT) is 0.872 and 0.87.

B8: KB001 mouse Fab VH I31P (Fab, V domains shown)
VH: EVQLKQSGPGLVAPSQSLSITCTVSGFSLSPYSVHWVRQPPGKGLEWLGMIWGGGSSDYNSALKSRLSISKDNSKSQVFLKMNSLQTDDTAMYYCARNGNFYAMDYWGQGTSVTVSS
VL: QIVLTQSPAIMSASLGERVTMTCTASSSVSSSFLHWYQQKPGSSPQLWIYSTSNLASGVPARFSGSGSGTSYSLTISSMEAEDAATYYCHQYHHSPYIYTFGGGTKLEIK
B8: the OD450 nm is 0.471 and 0.428; the Ratio OD(Variant)/OD(WT) was 0.934 and 0.848.

B9: KB001 mouse Fab VH H35V (Fab, V domains shown)
VH: EVQLKQSGPGLVAPSQSLSITCTVSGFSLSIYSVVWVRQPPGKGLEWLGMIWGGGSSDYNSALKSRLSISKDNSKSQVFLKMNSLQTDDTAMYYCARNGNFYAMDYWGQGTSVTVSS
VL: QIVLTQSPAIMSASLGERVTMTCTASSSVSSSFLHWYQQKPGSSPQLWIYSTSNLASGVPARFSGSGSGTSYSLTISSMEAEDAATYYCHQYHHSPYIYTFGGGTKLEIK
Consider B9, for which the OD450 nm came out at 0.706 and the Ratio OD(Variant)/OD(WT) turned out to be 0.856.

B10: KB001 mouse Fab VH I51Q/M92I (Fab, V domains shown)
VH: EVQLKQSGPGLVAPSQSLSITCTVSGFSLSIYSVHWVRQPPGKGLEWLGMQWGGGSSDYNSALKSRLSISKDNSKSQVFLKMNSLQTDDTAIYYCARNGNFYAMDYWGQGTSVTVSS
VL: QIVLTQSPAIMSASLGERVTMTCTASSSVSSSFLHWYQQKPGSSPQLWIYSTSNLASGVPARFSGSGSGTSYSLTISSMEAEDAATYYCHQYHHSPYIYTFGGGTKLEIK
For the molecule B10, the OD450 nm came to 0.722 and the Ratio OD(Variant)/OD(WT) came to 0.817.

B11: KB001 mouse Fab VH I31W (Fab, V domains shown)
VH: EVQLKQSGPGLVAPSQSLSITCTVSGFSLSWYSVHWVRQPPGKGLEWLGMIWGGGSSDYNSALKSRLSISKDNSKSQVFLKMNSLQTDDTAMYYCARNGNFYAMDYWGQGTSVTVSS
VL: QIVLTQSPAIMSASLGERVTMTCTASSSVSSSFLHWYQQKPGSSPQLWIYSTSNLASGVPARFSGSGSGTSYSLTISSMEAEDAATYYCHQYHHSPYIYTFGGGTKLEIK
With B11, the OD450 nm worked out at 0.459 and the Ratio OD(Variant)/OD(WT) came out at 0.91.

B12: KB001 mouse Fab VH Y32S (Fab, V domains shown)
VH: EVQLKQSGPGLVAPSQSLSITCTVSGFSLSISSVHWVRQPPGKGLEWLGMIWGGGSSDYNSALKSRLSISKDNSKSQVFLKMNSLQTDDTAMYYCARNGNFYAMDYWGQGTSVTVSS
VL: QIVLTQSPAIMSASLGERVTMTCTASSSVSSSFLHWYQQKPGSSPQLWIYSTSNLASGVPARFSGSGSGTSYSLTISSMEAEDAATYYCHQYHHSPYIYTFGGGTKLEIK
Regarding B12, the OD450 nm is 0.717 and 0.783 and 0.718; the Ratio OD(Variant)/OD(WT) is 0.847 and 0.925 and 0.848.

B13: KB001 mouse Fab VH I31L (Fab, V domains shown)
VH: EVQLKQSGPGLVAPSQSLSITCTVSGFSLSLYSVHWVRQPPGKGLEWLGMIWGGGSSDYNSALKSRLSISKDNSKSQVFLKMNSLQTDDTAMYYCARNGNFYAMDYWGQGTSVTVSS
VL: QIVLTQSPAIMSASLGERVTMTCTASSSVSSSFLHWYQQKPGSSPQLWIYSTSNLASGVPARFSGSGSGTSYSLTISSMEAEDAATYYCHQYHHSPYIYTFGGGTKLEIK
B13: the OD450 nm is 0.442 and 0.431; the Ratio OD(Variant)/OD(WT) was 0.876 and 0.854.

B14: KB001 mouse Fab VH I31N (Fab, V domains shown)
VH: EVQLKQSGPGLVAPSQSLSITCTVSGFSLSNYSVHWVRQPPGKGLEWLGMIWGGGSSDYNSALKSRLSISKDNSKSQVFLKMNSLQTDDTAMYYCARNGNFYAMDYWGQGTSVTVSS
VL: QIVLTQSPAIMSASLGERVTMTCTASSSVSSSFLHWYQQKPGSSPQLWIYSTSNLASGVPARFSGSGSGTSYSLTISSMEAEDAATYYCHQYHHSPYIYTFGGGTKLEIK
In the case of B14, the OD450 nm stood at 0.429 and the Ratio OD(Variant)/OD(WT) came to 0.85.
